Assay results taken from patent US20140341915A1 (DEUTSCHES KREBSFORSCHUNGSZENTRUM, published 2014).

Key:
[1] = molecular target: T1, B7-H6 polypeptide on cells (BA/F3-B7-H6 transfectants; cell lines expressing B7-H6 endogenously) (human, UniProt Q68D85 25-454); test: immunohistochemistry on acetone-fixed cytospins, mAb at 5 µg/ml
T1 construct: whole, on cells; The construct used for the BA/F3 transfectants is not described
T1 sequence (looked up): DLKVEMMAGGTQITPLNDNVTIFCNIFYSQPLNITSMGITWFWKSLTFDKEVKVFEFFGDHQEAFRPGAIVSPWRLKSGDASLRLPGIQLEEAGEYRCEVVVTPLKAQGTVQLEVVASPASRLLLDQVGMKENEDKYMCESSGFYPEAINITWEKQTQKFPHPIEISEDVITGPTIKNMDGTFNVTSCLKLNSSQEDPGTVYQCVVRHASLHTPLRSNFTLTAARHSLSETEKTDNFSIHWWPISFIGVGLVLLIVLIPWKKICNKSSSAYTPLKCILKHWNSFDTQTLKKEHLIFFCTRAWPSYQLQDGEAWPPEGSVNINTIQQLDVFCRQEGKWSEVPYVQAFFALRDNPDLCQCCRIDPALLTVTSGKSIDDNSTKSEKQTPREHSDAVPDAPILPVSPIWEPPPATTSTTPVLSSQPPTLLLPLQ
Description: Acetone-fixed cytospins of a 1:1 mixture of Ba/F3 and Ba/F3-B7-H6 cells were stained using the Dual Envision+System-HRP (Dako). After blocking endogenous peroxidase activity, cytospins were blocked with 10% goat serum and 0.1 mg/ml human
IgG. […] After incubation with 3,3′-diaminobenzidine (DAB) substrate solution, cell nuclei were counterstained with Hematoxylin and mounted cyotospins were analyzed by light microscopy.

[2] = molecular target: T2, B7-H6-Ig-fusionprotein consisting of the extracellular domain of B7-H6 fused to an IgG1-Fc domain (human, UniProt Q68D85 25-267); test: ELISA
T2 construct: Junction residues from restriction sites are not given; also called B7-H6-Ig-FP
T2 sequence: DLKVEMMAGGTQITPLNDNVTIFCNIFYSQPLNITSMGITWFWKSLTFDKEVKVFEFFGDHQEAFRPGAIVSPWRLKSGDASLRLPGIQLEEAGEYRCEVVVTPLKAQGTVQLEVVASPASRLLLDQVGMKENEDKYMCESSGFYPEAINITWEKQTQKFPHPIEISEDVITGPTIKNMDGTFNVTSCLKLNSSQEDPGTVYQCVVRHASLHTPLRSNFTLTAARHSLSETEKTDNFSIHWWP

B1: anti-B7-H6 monoclonal antibody (mAb) 1.18 (antibody, V domains shown)
VH: DVKLVESGGGLVKPGGSLKLSCAASGFTFSSYTMSWVRQTPEKRLEWVATINNGGSYTYYPDSVKGRFTISRDNAKNTLYLQMSSLKSEDTAIYYCYGYDPAWFAYWGQGTLVTVSA
VL: QAVVTQESALTTSPGETVTLTCRSSTGAVTTSNYANWVQEKPDHLFTGLIGGTNNRAPGVPARFSGSLIGDKAALTITGAQTEDEAIYFCALWYSNHWVFGGGTKLTVLG
B1: binds [1]; binds [2].
